Measurements taken from US20260001928A1 (CORTERIA PHARMACEUTICALS, priority 2022, published 2026).
*1 amine or outer side, *2 acyl side, *3 side chain or, on linkers, in order; H or OH if unused. Where no end group is shown, it is not given here. Side-chain parts run from the residue outwards. [ ]: non-standard residue; d: D form. The star is where a group is joined. C18 diacid = O=C(O)CCCCCCCCCCCCCCCCC(=O)*; C16 diacid = O=C(O)CCCCCCCCCCCCCCC(=O)*; γGlu = O=C(O)[C@H](CCC(=O)[*:2])N[*:1]; NMeI = CC[C@H](C)[C@H](NC)C(=O)O; Api = NC1(C(=O)O)CCNCC1; Abu = CC[C@H](N)C(=O)O; Aib = CC(C)(N)C(=O)O

Legend:
CRF1R receptor = target: T1, CRF1R receptor (UniProt P34998 24-415, limits assumed); test: cell-based or functional assay
T1 sequence (looked up): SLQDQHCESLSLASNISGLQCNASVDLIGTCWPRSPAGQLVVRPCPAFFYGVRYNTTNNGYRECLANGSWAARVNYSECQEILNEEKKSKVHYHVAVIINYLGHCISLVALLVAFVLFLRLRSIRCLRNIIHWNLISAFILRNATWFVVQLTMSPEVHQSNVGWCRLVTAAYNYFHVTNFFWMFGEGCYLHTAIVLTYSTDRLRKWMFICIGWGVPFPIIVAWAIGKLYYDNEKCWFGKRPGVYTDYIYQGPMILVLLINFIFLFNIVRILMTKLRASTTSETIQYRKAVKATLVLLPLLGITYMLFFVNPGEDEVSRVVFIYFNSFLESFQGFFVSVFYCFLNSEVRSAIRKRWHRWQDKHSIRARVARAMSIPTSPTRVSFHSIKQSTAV

[1] = target: human corticotropin-releasing factor 2a (CRF2a receptor) (human), Q13324; test: cell-based or functional assay
Chain of human corticotropin-releasing factor 2a (CRF2a receptor) (human), Q13324 (Q13324 20-411): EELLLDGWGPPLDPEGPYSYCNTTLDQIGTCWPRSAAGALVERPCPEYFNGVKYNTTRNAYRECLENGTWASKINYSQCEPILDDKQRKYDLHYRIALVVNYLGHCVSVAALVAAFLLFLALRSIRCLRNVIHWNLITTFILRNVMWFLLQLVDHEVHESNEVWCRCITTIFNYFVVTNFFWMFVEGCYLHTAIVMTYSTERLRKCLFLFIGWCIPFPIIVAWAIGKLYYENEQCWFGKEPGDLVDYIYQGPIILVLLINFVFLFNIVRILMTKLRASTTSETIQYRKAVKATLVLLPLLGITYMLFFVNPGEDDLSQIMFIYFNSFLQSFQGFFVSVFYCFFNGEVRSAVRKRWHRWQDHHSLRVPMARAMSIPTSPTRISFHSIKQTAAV

B1: SEQ ID NO 127 (peptide)
peptide: Ac-IVLSLD[dV]PIKLK([γGlu-C18 diacid])KILLEQEKQKKQREQAETN[Abu]QILAQV-NH2
SMILES: CC[C@H](NC(=O)[C@H](CC(N)=O)NC(=O)[C@@H](NC(=O)[C@H](CCC(=O)O)NC(=O)[C@H](C)NC(=O)[C@H](CCC(N)=O)NC(=O)[C@H](CCC(=O)O)NC(=O)[C@H](CCCNC(=N)N)NC(=O)[C@H](CCC(N)=O)NC(=O)[C@H](CCCCN)NC(=O)[C@H](CCCCN)NC(=O)[C@H](CCC(N)=O)NC(=O)[C@H](CCCCN)NC(=O)[C@H](CCC(=O)O)NC(=O)[C@H](CCC(N)=O)NC(=O)[C@H](CCC(=O)O)NC(=O)[C@H](CC(C)C)NC(=O)[C@H](CC(C)C)NC(=O)[C@@H](NC(=O)[C@H](CCCCN)NC(=O)[C@H](CCCCNC(=O)CC[C@H](NC(=O)CCCCCCCCCCCCCCCCC(=O)O)C(=O)O)NC(=O)[C@H](CC(C)C)NC(=O)[C@H](CCCCN)NC(=O)[C@@H](NC(=O)[C@@H]1CCCN1C(=O)[C@H](NC(=O)[C@H](CC(=O)O)NC(=O)[C@H](CC(C)C)NC(=O)[C@H](CO)NC(=O)[C@H](CC(C)C)NC(=O)[C@@H](NC(=O)[C@@H](NC(C)=O)[C@@H](C)CC)C(C)C)C(C)C)[C@@H](C)CC)[C@@H](C)CC)[C@@H](C)O)C(=O)N[C@@H](CCC(N)=O)C(=O)N[C@H](C(=O)N[C@@H](CC(C)C)C(=O)N[C@@H](C)C(=O)N[C@@H](CCC(N)=O)C(=O)N[C@H](C(N)=O)C(C)C)[C@@H](C)CC
CRF1R receptor
  Emax (% I): 11%
[1]
  EC50 [nM] (cAMP): 0.08 nM

B2: SEQ ID NO 129 (peptide)
peptide: Ac-IVLSLD[dV]PIKLK([γGlu-C18 diacid])KILLEQEKQKKQREQAETN[Api]QILAQV-NH2
SMILES: CC[C@H](C)[C@H](NC(C)=O)C(=O)N[C@H](C(=O)N[C@@H](CC(C)C)C(=O)N[C@@H](CO)C(=O)N[C@@H](CC(C)C)C(=O)N[C@@H](CC(=O)O)C(=O)N[C@@H](C(=O)N1CCC[C@H]1C(=O)N[C@H](C(=O)N[C@@H](CCCCN)C(=O)N[C@@H](CC(C)C)C(=O)N[C@@H](CCCCNC(=O)CC[C@H](NC(=O)CCCCCCCCCCCCCCCCC(=O)O)C(=O)O)C(=O)N[C@@H](CCCCN)C(=O)N[C@H](C(=O)N[C@@H](CC(C)C)C(=O)N[C@@H](CC(C)C)C(=O)N[C@@H](CCC(=O)O)C(=O)N[C@@H](CCC(N)=O)C(=O)N[C@@H](CCC(=O)O)C(=O)N[C@@H](CCCCN)C(=O)N[C@@H](CCC(N)=O)C(=O)N[C@@H](CCCCN)C(=O)N[C@@H](CCCCN)C(=O)N[C@@H](CCC(N)=O)C(=O)N[C@@H](CCCNC(=N)N)C(=O)N[C@@H](CCC(=O)O)C(=O)N[C@@H](CCC(N)=O)C(=O)N[C@@H](C)C(=O)N[C@@H](CCC(=O)O)C(=O)N[C@H](C(=O)N[C@@H](CC(N)=O)C(=O)NC1(C(=O)N[C@@H](CCC(N)=O)C(=O)N[C@H](C(=O)N[C@@H](CC(C)C)C(=O)N[C@@H](C)C(=O)N[C@@H](CCC(N)=O)C(=O)N[C@H](C(N)=O)C(C)C)[C@@H](C)CC)CCNCC1)[C@@H](C)O)[C@@H](C)CC)[C@@H](C)CC)C(C)C)C(C)C
CRF1R receptor
  EC50: 236 nM
  Emax (% I): 39%
[1]
  EC50 [nM] (cAMP): 0.14 nM

B3: SEQ ID NO 137 (peptide)
peptide: [NMeI]VLSLD[dV]PIKLK([γGlu-C18 diacid])KILLEQEKQKKQREQAETN[Aib]QILAQV-NH2
modifications: N-terminus assumed
SMILES: CC[C@H](C)[C@H](NC)C(=O)N[C@H](C(=O)N[C@@H](CC(C)C)C(=O)N[C@@H](CO)C(=O)N[C@@H](CC(C)C)C(=O)N[C@@H](CC(=O)O)C(=O)N[C@@H](C(=O)N1CCC[C@H]1C(=O)N[C@H](C(=O)N[C@@H](CCCCN)C(=O)N[C@@H](CC(C)C)C(=O)N[C@@H](CCCCNC(=O)CC[C@H](NC(=O)CCCCCCCCCCCCCCCCC(=O)O)C(=O)O)C(=O)N[C@@H](CCCCN)C(=O)N[C@H](C(=O)N[C@@H](CC(C)C)C(=O)N[C@@H](CC(C)C)C(=O)N[C@@H](CCC(=O)O)C(=O)N[C@@H](CCC(N)=O)C(=O)N[C@@H](CCC(=O)O)C(=O)N[C@@H](CCCCN)C(=O)N[C@@H](CCC(N)=O)C(=O)N[C@@H](CCCCN)C(=O)N[C@@H](CCCCN)C(=O)N[C@@H](CCC(N)=O)C(=O)N[C@@H](CCCNC(=N)N)C(=O)N[C@@H](CCC(=O)O)C(=O)N[C@@H](CCC(N)=O)C(=O)N[C@@H](C)C(=O)N[C@@H](CCC(=O)O)C(=O)N[C@H](C(=O)N[C@@H](CC(N)=O)C(=O)NC(C)(C)C(=O)N[C@@H](CCC(N)=O)C(=O)N[C@H](C(=O)N[C@@H](CC(C)C)C(=O)N[C@@H](C)C(=O)N[C@@H](CCC(N)=O)C(=O)N[C@H](C(N)=O)C(C)C)[C@@H](C)CC)[C@@H](C)O)[C@@H](C)CC)[C@@H](C)CC)C(C)C)C(C)C
CRF1R receptor
  Emax (% I): 9%
[1]
  EC50 [nM] (cAMP): 0.07 nM

B4: SEQ ID NO 69 (peptide)
peptide: [NMeI]VLSLD[dV]PIKLK([γGlu-C16 diacid])KILLEQEKQKKQREQAETN[Abu]QILAQV-NH2
modifications: N-terminus assumed
SMILES: CC[C@H](NC(=O)[C@H](CC(N)=O)NC(=O)[C@@H](NC(=O)[C@H](CCC(=O)O)NC(=O)[C@H](C)NC(=O)[C@H](CCC(N)=O)NC(=O)[C@H](CCC(=O)O)NC(=O)[C@H](CCCNC(=N)N)NC(=O)[C@H](CCC(N)=O)NC(=O)[C@H](CCCCN)NC(=O)[C@H](CCCCN)NC(=O)[C@H](CCC(N)=O)NC(=O)[C@H](CCCCN)NC(=O)[C@H](CCC(=O)O)NC(=O)[C@H](CCC(N)=O)NC(=O)[C@H](CCC(=O)O)NC(=O)[C@H](CC(C)C)NC(=O)[C@H](CC(C)C)NC(=O)[C@@H](NC(=O)[C@H](CCCCN)NC(=O)[C@H](CCCCNC(=O)CC[C@H](NC(=O)CCCCCCCCCCCCCCC(=O)O)C(=O)O)NC(=O)[C@H](CC(C)C)NC(=O)[C@H](CCCCN)NC(=O)[C@@H](NC(=O)[C@@H]1CCCN1C(=O)[C@H](NC(=O)[C@H](CC(=O)O)NC(=O)[C@H](CC(C)C)NC(=O)[C@H](CO)NC(=O)[C@H](CC(C)C)NC(=O)[C@@H](NC(=O)[C@@H](NC)[C@@H](C)CC)C(C)C)C(C)C)[C@@H](C)CC)[C@@H](C)CC)[C@@H](C)O)C(=O)N[C@@H](CCC(N)=O)C(=O)N[C@H](C(=O)N[C@@H](CC(C)C)C(=O)N[C@@H](C)C(=O)N[C@@H](CCC(N)=O)C(=O)N[C@H](C(N)=O)C(C)C)[C@@H](C)CC
CRF1R receptor
  Emax (% I): 3%
[1]
  EC50 [nM] (cAMP): 0.09 nM
